B1: Erythropoietin receptor (Homo sapiens), P19235 (parent)
chain: MDHLGASLWPQVGSLCLLLAGAAWAPPPNLPDPKFESKAALLAARGPEELLCFTERLEDLVCFWEEAASAGVGPGNYSFSYQLEDEPWKLCRLHQAPTARGAVRFWCSLPTADTSSFVPLELRVTAASGAPRYHRVIHINEVVLLDAPVGLVARLADESGHVVLRWLPPPETPMTSHIRYEVDVSAGNGAGSVQRVEILEGRTECVLSNLRGRTRYTFAVRARMAEPSFGGFWSAWSEPVSLLTPSDLDPLILTLSLILVVILVLLTVLALLSHRRALKQKIWPGIPSPESEFEGLFTTHKGNFQLWLYQNDGCLWWSPCTPFTEDPPASLEVLSERCWGTMQAVEPGTDDEGPLLEPVGSEHAQDTYLVLDKWLLPRNPPSEDLPGPGGSVDIVAMDEGSEASSCSSALASKPSPEGASAASFEYTILDPSSQLLRPWTLCPELPPTPPHLKYLYLVVSDSGISTDYSSGDSQGAQGGLSDGPYSNPYENSLIPAAEPLPPSYVACS
partner: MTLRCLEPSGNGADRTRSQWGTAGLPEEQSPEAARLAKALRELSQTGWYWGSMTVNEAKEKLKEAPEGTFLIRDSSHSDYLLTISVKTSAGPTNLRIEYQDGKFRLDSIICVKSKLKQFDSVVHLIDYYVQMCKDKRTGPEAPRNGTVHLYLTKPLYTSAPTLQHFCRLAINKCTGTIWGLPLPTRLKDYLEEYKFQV
B2: 1-phosphatidylinositol 4,5-bisphosphate phosphodiesterase gamma-2 (Homo sapiens), P16885 (parent)
chain: MSTTVNVDSLAEYEKSQIKRALELGTVMTVFSFRKSTPERRTVQVIMETRQVAWSKTADKIEGFLDIMEIKEIRPGKNSKDFERAKAVRQKEDCCFTILYGTQFVLSTLSLAADSKEDAVNWLSGLKILHQEAMNASTPTIIESWLRKQIYSVDQTRRNSISLRELKTILPLINFKVSSAKFLKDKFVEIGAHKDELSFEQFHLFYKKLMFEQQKSILDEFKKDSSVFILGNTDRPDASAVYLHDFQRFLIHEQQEHWAQDLNKVRERMTKFIDDTMRETAEPFLFVDEFLTYLFSRENSIWDEKYDAVDMQDMNNPLSHYWISSSHNTYLTGDQLRSESSPEAYIRCLRMGCRCIELDCWDGPDGKPVIYHGWTRTTKIKFDDVVQAIKDHAFVTSSFPVILSIEEHCSVEQQRHMAKAFKEVFGDLLLTKPTEASADQLPSPSQLREKIIIKHKKLGPRGDVDVNMEDKKDEHKQQGELYMWDSIDQKWTRHYCAIADAKLSFSDDIEQTMEEEVPQDIPPTELHFGEKWFHKKVEKRTSAEKLLQEYCMETGGKDGTFLVRESETFPNDYTLSFWRSGRVQHCRIRSTMEGGTLKYYLTDNLTFSSIYALIQHYRETHLRCAEFELRLTDPVPNPNPHESKPWYYDSLSRGEAEDMLMRIPRDGAFLIRKREGSDSYAITFRARGKVKHCRINRDGRHFVLGTSAYFESLVELVSYYEKHSLYRKMRLRYPVTPELLERYNMERDINSLYDVSRMYVDPSEINPSMPQRTVKALYDYKAKRSDELSFCRGALIHNVSKEPGGWWKGDYGTRIQQYFPSNYVEDISTADFEELEKQIIEDNPLGSLCRGILDLNTYNVVKAPQGKNQKSFVFILEPKQQGDPPVEFATDRVEELFEWFQSIREITWKIDTKENNMKYWEKNQSIAIELSDLVVYCKPTSKTKDNLENPDFREIRSFVETKADSIIRQKPVDLLKYNQKGLTRVYPKGQRVDSSNYDPFRLWLCGSQMVALNFQTADKYMQMNHALFSLNGRTGYVLQPESMRTEKYDPMPPESQRKILMTLTVKVLGARHLPKLGRSIACPFVEVEICGAEYDNNKFKTTVVNDNGLSPIWAPTQEKVTFEIYDPNLAFLRFVVYEEDMFSDPNFLAHATYPIKAVKSGFRSVPLKNGYSEDIELASLLVFCEMRPVLESEEELYSSCRQLRRRQEELNNQLFLYDTHQNLRNANRDALVKEFSVNENQLQLYQEKCNKRLREKRVSNSKFYS
partner: B1 chain
B3: Erythropoietin receptor (Homo sapiens), P19235 (parent)
chain: B1 chain
partner: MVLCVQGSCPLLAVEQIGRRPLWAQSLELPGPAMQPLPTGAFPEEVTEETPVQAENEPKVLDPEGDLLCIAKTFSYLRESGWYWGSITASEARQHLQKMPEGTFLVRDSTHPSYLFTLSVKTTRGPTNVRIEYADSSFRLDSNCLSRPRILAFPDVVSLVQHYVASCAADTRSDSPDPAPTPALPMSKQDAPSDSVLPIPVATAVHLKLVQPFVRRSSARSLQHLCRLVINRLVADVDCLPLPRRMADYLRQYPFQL
B4: Erythropoietin receptor (Homo sapiens), P19235 (parent)
chain: B1 chain
partner: B2 chain

Variants of: B1
Conditions: with socs2_mouse Socs2, O35717

Question: With Y426F as the variant, how does the “effect of a mutation on the interaction” value read?
Answer: The value was “decreasing interaction”.

Variants of: B2
Conditions: with epor_human EPOR

Question: For K367F, which “effect of a mutation on the interaction” value is on record?
Answer: Its value is “decreasing interaction”.

Variants of: B3
Conditions: with cish_mouse Cish

Question: Y454F was tested. Which “effect of a mutation on the interaction” value did it give?
Answer: The value was “decreasing interaction”.

Variants of: B3
Conditions: with cish_mouse Cish
Remark: another data set of the same source

Question: Y426F was tested. Which “effect of a mutation on the interaction” value did it give?
Answer: Its value is “decreasing interaction”.

Variants of: B4
Conditions: with plcg2_human PLCG2, P16885

Question: Y504F was tested. Which “effect of a mutation on the interaction” value did it give?
Answer: Its value is “decreasing interaction”.

Question: Y456F was tested. Which “effect of a mutation on the interaction” value did it give?
Answer: The value was “decreasing interaction”.

Reference: IntAct's records for PubMed 15644415
